Measured values published in patent US20250320281A1.

Tests used:
Assay in all cases: cell-based or functional assay
[1] = target: HIV-1 Env of isolate 92BR020 (clade B) on pseudovirus (HIV-1)
[2] = target: HIV-1 Env of isolate MGRM-C-026 (clade C) on pseudovirus (HIV-1)
[3] = target: HIV-1 Env of isolate JRCSF (clade B) on pseudovirus (HIV-1) (UniProt P20871)
[4] = target: HIV-1 Env of isolate 93UG077 (clade A) on pseudovirus (HIV-1)
[5] = target: HIV-1 Env of isolate MGRM-D-018 (clade D) on pseudovirus (HIV-1)
[6] = target: HIV-1 Env of isolate MGRM-D-001 (clade D) on pseudovirus (HIV-1)
[7] = target: HIV-1 Env of isolate 93IN905 (clade C) on pseudovirus (HIV-1)
[8] = target: HIV-1 Env of isolate JRFL (clade B) on pseudovirus (HIV-1)
[9] = target: HIV-1 Env of isolate 94UG103 (clade A) on pseudovirus (HIV-1)
[10] = target: HIV-1 Env of isolate APV17 (clade B) on pseudovirus (HIV-1)
[11] = target: HIV-1 Env of isolate 92RW020 (clade A) on pseudovirus (HIV-1)
[12] = target: HIV-1 Env of isolate APV6 (clade B) on pseudovirus (HIV-1)
[13] = target: HIV-1 Env of isolate MGRM-C-027 (clade C) on pseudovirus (HIV-1)
[14] = target: HIV-1 Env of isolate APV13 (clade B) on pseudovirus (HIV-1)

PGT-121 (4838_L06; 4873_E03) human monoclonal anti-HIV antibody
IC80 (pseudovirus neutralization) [1]: 0.0532 µg/mL | IC90 (pseudovirus neutralization) [1]: 0.101 µg/mL | IC95 (pseudovirus neutralization) [2]: 0.0687 µg/mL | IC90 (pseudovirus neutralization) [3]: 0.223 µg/mL | IC95 (pseudovirus neutralization) [3]: 0.417 µg/mL | IC90 (pseudovirus neutralization) [4]: 0.369 µg/mL | IC95 (pseudovirus neutralization) [4]: 0.74 µg/mL | IC80 (pseudovirus neutralization) [5]: 0.0231 µg/mL | IC90 (pseudovirus neutralization) [5]: 0.0414 µg/mL | IC95 (pseudovirus neutralization) [5]: 0.0715 µg/mL | IC80 (pseudovirus neutralization) [6]: 3.29 µg/mL | IC90 (pseudovirus neutralization) [6]: 6.26 µg/mL | IC95 (pseudovirus neutralization) [6]: 9.39 µg/mL | IC80 (pseudovirus neutralization) [7]: 0.0302 µg/mL | IC90 (pseudovirus neutralization) [7]: 0.0645 µg/mL | IC80 (pseudovirus neutralization) [8]: 0.0806 µg/mL | IC90 (pseudovirus neutralization) [8]: 0.151 µg/mL | IC95 (pseudovirus neutralization) [8]: 0.267 µg/mL | IC80 (pseudovirus neutralization) [9]: 8.85 µg/mL | IC80 (pseudovirus neutralization) [10]: 0.371 µg/mL | IC90 (pseudovirus neutralization) [10]: 0.799 µg/mL | IC95 (pseudovirus neutralization) [10]: 1.55 µg/mL | IC80 (pseudovirus neutralization) [11]: 0.0188 µg/mL | IC90 (pseudovirus neutralization) [11]: 0.0361 µg/mL | IC95 (pseudovirus neutralization) [11]: 0.0671 µg/mL | IC80 (pseudovirus neutralization) [12]: 0.145 µg/mL | IC95 (pseudovirus neutralization) [12]: 0.569 µg/mL | IC80 (pseudovirus neutralization) [13]: 0.0829 µg/mL | IC90 (pseudovirus neutralization) [13]: 0.374 µg/mL | IC95 (pseudovirus neutralization) [13]: 3.14 µg/mL | IC80 (pseudovirus neutralization) [14]: 1.31 µg/mL | IC90 (pseudovirus neutralization) [14]: 2.8 µg/mL | IC95 (pseudovirus neutralization) [14]: 5.15 µg/mL
